In US20240238459A1, “Granzyme-Activatable Membrane-Interacting Peptides and Methods of Use” (priority 2021, published 2024):
Ends that are not written are not given here.

Key:
granzyme B [1] = biological target: T1, granzyme B (Homo sapiens, UniProt P10144); assay: Protease specificity of substrate sequence (FIG. 1F); format: biochemical; set-up: purchased; settings: vs thrombin, caspase 3, caspase 8, granzyme K, MMP9, C1S; enzymes 5 nM, substrate 60 μM, 37° C., PBS, 1 mM DTT, pH 7.4
Protocol: The substrate sequence FVQWFSKFLGK (SEQ ID NO:3) was assessed for specificity for granzyme B compared to thrombin, caspase 3, caspase 8, granzyme K, MMP9, and C1S at 5 nM concentrations with substrate at 60 μM, 37° C., and buffer of PBS, 1 mM DTT, and pH 7.4.

granzyme B [2] = biological target: T1, granzyme B; assay: In vitro kinetics of quenched fluorogenic peptide proteolysis by GZMB; format: biochemical; settings: Michaelis-Menten kinetics (FIG. 1D)
human erythrocytes = assay: Toxicity assay measuring hemolysis of human erythrocytes; settings: in vitro, 1 hr at 37° C., hemoglobin release OD 540 nm
Protocol: Blood from healthy anonymous donors was harvested from Trima Leukoreduction chambers (Vitalant, San Francisco CA). Erythrocytes were isolated from the anonymous blood samples. Full-length GRIP B and activated GRIP B were measured for their hemolytic activity on healthy human erythrocytes in triplicate. Aliquots of human erythrocytes were suspended in PBS (pH 7.4) and incubated with serial dilutions of both peptides which were initially solubilized in DMSO. DMSO and 1% Triton X-100 were incubated in parallel as negative and positive controls, respectively. Incubation was for 1 hr at 37° C. After incubation, the samples were centrifuged for 5 min at 2,000×g upon which the supernatant was collected. Supernatant was measured for the release of hemoglobin by the erythrocytes using a BioTek H4 multimode plate reader, monitoring the optical density of the supernatant at a wavelength of 540 nm.

T1 sequence (P10144 21-247): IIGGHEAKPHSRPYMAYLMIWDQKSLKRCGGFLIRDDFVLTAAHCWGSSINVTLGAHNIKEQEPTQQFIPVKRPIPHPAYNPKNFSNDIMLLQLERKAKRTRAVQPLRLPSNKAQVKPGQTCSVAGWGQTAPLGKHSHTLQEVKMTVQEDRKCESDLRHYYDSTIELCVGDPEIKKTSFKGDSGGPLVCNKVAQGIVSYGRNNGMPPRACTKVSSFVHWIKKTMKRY

## FVQWFSKFLGK
Granzyme B [1]
  specificity for granzyme B compared to other proteases: highly specific for granzyme B

## IEPDVSQV (ends and bridges not checked) [NH2-K(MCA)IEPDVSQVK(DNP)-COOH]
Granzyme B [2]
  improved catalytic turnover compared to IEPD alone: approximately 2 fold

## FVQWFSKFLGKIEPDVSQVQDPNDQYEPF [GRIP B]
Human erythrocytes
  toxicity toward human red blood cells: not to display toxicity
